Source: patent US20220017612A1 (TILOS THERAPEUTICS, published 2022)

T1: fusion protein of a human IgG1 Fc domain and human LAP-TGFβ2 (human, UniProt P61812 21-414)
T1 construct: also called Fc-huB2; human LAP-TGFβ2-Fc
T1 sequence: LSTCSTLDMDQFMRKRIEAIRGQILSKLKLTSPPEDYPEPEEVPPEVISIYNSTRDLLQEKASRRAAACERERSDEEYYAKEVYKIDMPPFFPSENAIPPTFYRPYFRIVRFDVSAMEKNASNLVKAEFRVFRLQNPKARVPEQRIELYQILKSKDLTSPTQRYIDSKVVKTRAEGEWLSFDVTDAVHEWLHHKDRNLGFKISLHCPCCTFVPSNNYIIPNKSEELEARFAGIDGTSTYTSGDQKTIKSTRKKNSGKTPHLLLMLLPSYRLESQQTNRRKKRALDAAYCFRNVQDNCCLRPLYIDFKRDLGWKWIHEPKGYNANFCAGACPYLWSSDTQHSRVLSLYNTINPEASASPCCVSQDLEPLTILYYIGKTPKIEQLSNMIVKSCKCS


Key:
[1] = biological target: T1, fusion protein of a human IgG1 Fc …; test: bio-layer interferometry, biotinylated antibody on streptavidin tip, Fc-huB2 in solution
Method: The 20E6_H0.2aL1_IgG1 antibody was biotinylated using EZ-Link SulfoNHS-LC-Biotin (ThermoFisher). A streptavidin-functionalized tip was equilibrated in binding buffer (10 mM sodium phosphate, 150 mM sodium chloride, 1% (w/v) bovine serum albumin, 0.05% (w/v) sodium azide, pH 7.4) and dipped in a 10 μg/mL solution of biotinylated anti-LAP in binding buffer for 30 seconds to load the tip with antibody. The antibody-loaded tip was then washed in binding buffer and placed in a solution containing 0-24 nM of a fusion protein having a human IgG1 Fc domain fused to either human LAP-TGFβ1, human LAP-TGFβ2 or human LAP-TGFβ3. The antigen was allowed to bind to antibody for 5 minutes (association phase), and then the tip was moved to binding buffer (dissociation phase). The association and dissociation phases were fit to a 2:1 heterogenous ligand binding model to determine the binding rate constants. As shown in FIG. 21A and Table 17, 20E6_H0.2aL1_IgG1 bound with sub-nanomolar affinity to human LAP-TGFβ1, but not to human LAP-TGFβ2 (FIG. 21B) or LAP-TGFβ3 (FIG. 21C).

[2] = biological target: T2, LAP-only variant of human TGFβ1 (empty LAP) on HT1080 cells (human, UniProt P01137 30-277); test: flow cytometry, HT1080 cells; grey bar = no anti-LAP antibody
T2 construct: LAP without the mature cytokine; also called HT1080-emptyLAP; LAP-only construct
Method: (§1) This Example describes the binding of anti-LAP antibodies to LAP-TGFβ isoforms and LAP-TGFβ variants. In addition to antibodies 28G11_hIgG1, 22F9_hIgG1, and 20E6_hIgG1, anti-LAP antibodies 17G8_hIgG1, 24E3_hIgG1, and 2C9_(hyb) were also tested in this experiment. Briefly, 4×10⁵ each of (a) HT1080 cells, (b) HT1080 cells overexpressing human LAP-TGFβ1, (c) HT1080 cells overexpressing human LAP-TGFβ2, (d) HT1080 cells overexpressing human LAP-TGFβ3, (e) HT1080 cells overexpressing murine LAP-TGFβ1, (f) P3U1 cells, (g) P3U1 cells overexpressing LAP-TGFβ1 and GARP, and (h) P3U1 cells overexpressing LAP-TGFβ1 and LRRC33 were cultured in 96-well plates. The plates were centrifuged for 5 min at 1,500 rpm, liquid was removed, and cells were resuspended with 200 μL FACS buffer. The plates were centrifuged again, diluted primary antibody was added to each well, and the plates were incubated on ice for 20 minutes, followed by centrifugation. The cells were resuspended in 200 μL FACS buffer, centrifuged again, and resuspended in 50 μL diluted secondary antibody (Alexa647-anti-Human IgG or APC-anti-Mouse IgG). The plates were incubated on ice for 20 minutes in the dark, washed twice with 200 μL FACS buffer, and cells from each well (in 200 μL FACS buffer) were read on the Attune NXT instrument.
(§2) Cells were processed for flow cytometry in the same manner described above for the isoform-specific binding experiments.

[3] = biological target: T3, human LAP-TGFβ1 with K27C and Y75C mutations on HT1080 cells (human, UniProt P01137 30-390); test: as above
T3 construct: also called closed conformation
Method: as §1, §2

[4] = biological target: T4, human-chicken LAP-TGFβ1 chimera #2.2 on HT1080 cells (human/chicken chimera, UniProt P01137 30-390); test: as above
T4 construct: also called HT1080-ch2.2
Method: as §1, §2

[5] = biological target: T5, human-chicken LAP-TGFβ1 chimera #2.3 on HT1080 cells (human/chicken chimera, UniProt P01137 30-390); test: as above
T5 construct: also called HT1080-ch2.3
Method: as §1, §2

[6] = biological target: T6, human LAP-TGFβ1 with a Y74T mutation on HT1080 cells (human, UniProt P01137 30-390); test: as above
T6 construct: also called HT1080-Y74T; open conformation
Method: as §1, §2

T6 sequence (P01137 other isoform, or with tags, fused parts or gaps Y74T Y74T): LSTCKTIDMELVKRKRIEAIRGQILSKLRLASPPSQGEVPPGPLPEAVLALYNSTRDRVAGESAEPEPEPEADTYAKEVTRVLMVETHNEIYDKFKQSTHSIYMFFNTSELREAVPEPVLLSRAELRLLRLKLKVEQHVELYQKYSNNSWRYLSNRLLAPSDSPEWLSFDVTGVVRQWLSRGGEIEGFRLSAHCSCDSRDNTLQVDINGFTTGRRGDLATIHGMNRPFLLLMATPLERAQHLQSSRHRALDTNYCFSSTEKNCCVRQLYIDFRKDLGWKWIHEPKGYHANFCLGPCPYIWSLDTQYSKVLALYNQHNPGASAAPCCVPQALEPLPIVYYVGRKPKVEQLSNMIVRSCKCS
T3 sequence (P01137 other isoform, or with tags, fused parts or gaps K27C Y75C K27C Y75C): as the sequence (P01137 other isoform, or with tags, fused parts or gaps Y74T Y74T) above, with K27C, T74Y, Y75C counted along it
T5 sequence (P01137 other isoform, or with tags, fused parts or gaps mutant): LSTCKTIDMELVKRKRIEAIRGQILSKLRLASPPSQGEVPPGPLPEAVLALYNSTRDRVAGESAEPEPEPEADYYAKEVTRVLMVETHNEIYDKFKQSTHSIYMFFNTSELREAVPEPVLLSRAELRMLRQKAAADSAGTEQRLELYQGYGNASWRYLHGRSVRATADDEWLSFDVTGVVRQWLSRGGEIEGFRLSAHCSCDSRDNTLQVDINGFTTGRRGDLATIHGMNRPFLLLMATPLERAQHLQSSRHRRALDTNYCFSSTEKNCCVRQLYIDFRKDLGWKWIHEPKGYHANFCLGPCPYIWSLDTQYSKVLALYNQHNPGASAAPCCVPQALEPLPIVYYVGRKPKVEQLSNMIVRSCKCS
T4 sequence (P01137 other isoform, or with tags, fused parts or gaps mutant): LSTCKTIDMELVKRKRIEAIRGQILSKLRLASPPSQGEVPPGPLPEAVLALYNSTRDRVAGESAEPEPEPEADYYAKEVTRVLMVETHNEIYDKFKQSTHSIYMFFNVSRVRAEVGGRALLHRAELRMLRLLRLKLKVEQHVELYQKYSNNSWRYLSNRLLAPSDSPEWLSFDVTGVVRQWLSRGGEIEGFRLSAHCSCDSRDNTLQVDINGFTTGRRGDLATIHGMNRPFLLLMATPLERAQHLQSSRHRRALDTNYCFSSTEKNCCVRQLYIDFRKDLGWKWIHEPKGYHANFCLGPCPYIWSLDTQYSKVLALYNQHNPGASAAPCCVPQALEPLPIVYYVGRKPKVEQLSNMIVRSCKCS
T2 sequence (P01137 30-277, change not shown): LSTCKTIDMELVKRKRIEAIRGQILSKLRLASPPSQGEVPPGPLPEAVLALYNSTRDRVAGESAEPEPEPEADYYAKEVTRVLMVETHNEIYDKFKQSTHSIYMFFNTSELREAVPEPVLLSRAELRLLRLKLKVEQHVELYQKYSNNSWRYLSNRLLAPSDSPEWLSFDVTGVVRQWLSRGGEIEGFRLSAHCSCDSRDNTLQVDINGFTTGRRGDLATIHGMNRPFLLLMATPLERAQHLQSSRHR

Row | Binder | binding result [1] | binding result [2] | binding result [3] | binding result [4] | binding result [5] | binding result [6]
1 | 20E6_H0.2aL1_hIgG1 (antibody, also called 20E6_H0.2aL1_IgG1; humanized 20E6) heavy: not shown light: DIQMTQSPSSLSASVGDRVTITCRASQDITNYLNWYQQKPGKAVKLLIYYTSRLHSGVPSRFSGSGSGTDYTLTISSLQPEDFATYFCQQGDTLPWTFGQGTKLEIKRTVAAPSVFIFPPSDEQLKSGTASVVCLLNNFYPREAKVQWKVDNALQSGNSQESVTEQDSKDSTYSLSSTLTLSKADYEKHKVYACEVTHQGLSSPVTKSFNRGEC | no binding (tested: 24 nM) | – | – | – | – | –
2 | 22F9_hIgG1 (antibody, V domains shown) VH: QVQLQQPGAELVKPGASVKLSCKASGYTFTSYWMHWVKQRPGQGLEWIGMIHPNSGSTNYNEKFKSKATLTVDKSSSTAYMQLSSLTSEDSAVYYCAYYDYDGFFDVWGTGTTVTVSS VL: DIVLTQSPASLDVSLGQRATISCRASKSVSTSGYSYMHWYQQKSGQPPKLLIYLASNLESGVPARFSGSGSGTHFTLNIHPVEEEDAATYYCQHSRELPYTFGGGTKLEIK | – | no binding | binds | no binding | binds | no binding
